Measured values taken from patent publication US20240400715A1 (VIBRANT PHARMA, published 2024).
Residue numbers refer to the chain shown, from its start.

B1: 109 (Knob-Fab+Hole-CEA) (bispecific antibody, human IgG4 S228P, kappa, F234A L235A)
heavy: ESKYGPPCPPCPAPEAAGGPSVFLFPPKPKDTLMISRTPEVTCVVVDVSQEDPEVQFNWYVDGVEVHNAKTKPREEQFNSTYRVVSVLTVLHQDWLNGKEYKCKVSNKGLPSSIEKTISKAKGQPREPQVYTLPPCQEEMTKNQVSLWCLVKGFYPSDIAVEWESNGQPENNYKTTPPVLDSDGSFFLYSRLTVDKSRWQEGNVFSCSVMHEALHNHYTQKSLSLSLGGGGSGGGGSEVKLLESGGGLVQPKGSLKLSCAASGFTFNTYAMNWVRQAPGKGLEWVARIRSKYNNYATYYADSVKDRFTISRDDSQSILYLQMNNLKTEDTAMYYCVRHGNFGNSYVSWFAYWGQGTLVTVSSASTKGPSVFPLAPCSRSTSESTAALGCLVKDYFPEPVTVSWNSGALTSGVHTFPAVLQSSGLYSLSSVVTVPSSSLGTKTYTCNVDHKPSNTKVDKRV
chain: ESKYGPPCPPCPAPEAAGGPSVFLFPPKPKDTLMISRTPEVTCVVVDVSQEDPEVQFNWYVDGVEVHNAKTKPREEQFNSTYRVVSVLTVLHQDWLNGKEYKCKVSNKGLPSSIEKTISKAKGQPREPQVCTLPPSQEEMTKNQVSLSCAVKGFYPSDIAVEWESNGQPENNYKTTPPVLDSDGSFFLVSRLTVDKSRWQEGNVFSCSVMHEALHNRFTQKSLSLSLGGGGSGGGGSEVQLVESGGGFVQAGESLTLSCTSSTLTFTPYRMAWYRQAPGKQRDLVADISSGDGRTTNYADFAKGRFTISRDNIKNTVFLRMTNLKPEDTAVYYCNTFVSFVGIARSWGQGTQVTVSS
light: QAVVTQESALTTSPGETVTLTCRSSTGAVTTSNYANWVQEKPDHLFTGLIGGTNKRAPGVPARFSGSLIGDKAALTITGAQTEDEAIYFCALWYSNLWVFGGGTKVEIKRTVAAPSVFIFPPSDEQLKSGTASVVCLLNNFYPREAKVQWKVDNALQSGNSQESVTEQDSKDSTYSLSSTLTLSKADYEKHKVYACEVTHQGLSSPVTKSFNRGEC
notes: TA1 Fab, C17 VHH, IgG4 Fc KIH
B2: 110 (CEA-Knob+Hole-Fab) (bispecific antibody, human IgG4 S228P, kappa, F234A L235A)
chain: EVQLVESGGGFVQAGESLTLSCTSSTLTFTPYRMAWYRQAPGKQRDLVADISSGDGRTTNYADFAKGRFTISRDNIKNTVFLRMTNLKPEDTAVYYCNTFVSFVGIARSWGQGTQVTVSSESKYGPPCPPCPAPEAAGGPSVFLFPPKPKDTLMISRTPEVTCVVVDVSQEDPEVQFNWYVDGVEVHNAKTKPREEQFNSTYRVVSVLTVLHQDWLNGKEYKCKVSNKGLPSSIEKTISKAKGQPREPQVYTLPPCQEEMTKNQVSLWCLVKGFYPSDIAVEWESNGQPENNYKTTPPVLDSDGSFFLYSRLTVDKSRWQEGNVFSCSVMHEALHNHYTQKSLSLSL
heavy: B1 heavy with Y131C, C136S, W148S, L150A, Y189V, H217R, Y218F
light: B1 light
notes: TA1 Fab, C17 VHH, IgG4 Fc KIH
B3: 112 (Knob-CEA+Hole-Fab) (bispecific antibody, human IgG4 S228P, kappa, F234A L235A)
chain: B1 chain with C131Y, S136C, S148W, A150L, V189Y, R217H, F218Y
heavy: B1 heavy with Y131C, C136S, W148S, L150A, Y189V, H217R, Y218F
light: B1 light
notes: TA1 Fab, C17 VHH, IgG4 Fc KIH
B4: 111 (Knob+CEA-Hole-Fab) (bispecific antibody, human IgG4 S228P, kappa, F234A L235A)
chain: ESKYGPPCPPCPAPEAAGGPSVFLFPPKPKDTLMISRTPEVTCVVVDVSQEDPEVQFNWYVDGVEVHNAKTKPREEQFNSTYRVVSVLTVLHQDWLNGKEYKCKVSNKGLPSSIEKTISKAKGQPREPQVYTLPPCQEEMTKNQVSLWCLVKGFYPSDIAVEWESNGQPENNYKTTPPVLDSDGSFFLYSRLTVDKSRWQEGNVFSCSVMHEALHNHYTQKSLSLSL
heavy: EVQLVESGGGFVQAGESLTLSCTSSTLTFTPYRMAWYRQAPGKQRDLVADISSGDGRTTNYADFAKGRFTISRDNIKNTVFLRMTNLKPEDTAVYYCNTFVSFVGIARSWGQGTQVTVSSESKYGPPCPPCPAPEAAGGPSVFLFPPKPKDTLMISRTPEVTCVVVDVSQEDPEVQFNWYVDGVEVHNAKTKPREEQFNSTYRVVSVLTVLHQDWLNGKEYKCKVSNKGLPSSIEKTISKAKGQPREPQVCTLPPSQEEMTKNQVSLSCAVKGFYPSDIAVEWESNGQPENNYKTTPPVLDSDGSFFLVSRLTVDKSRWQEGNVFSCSVMHEALHNRFTQKSLSLSLGGGGSGGGGSEVKLLESGGGLVQPKGSLKLSCAASGFTFNTYAMNWVRQAPGKGLEWVARIRSKYNNYATYYADSVKDRFTISRDDSQSILYLQMNNLKTEDTAMYYCVRHGNFGNSYVSWFAYWGQGTLVTVSSASTKGPSVFPLAPCSRSTSESTAALGCLVKDYFPEPVTVSWNSGALTSGVHTFPAVLQSSGLYSLSSVVTVPSSSLGTKTYTCNVDHKPSNTKVDKRV
light: B1 light
notes: TA1 Fab, C17 VHH, IgG4 Fc KIH

What follows are binders tested against T1, human CD3ε/δ (ACRO systems, CDD-H52W1) (human, UniProt P07766 23-126; P04234 22-105) (assay: serum-stability ELISA, Day 5 vs Day 0).
T1 construct: bought recombinant heterodimer; also called human CD3 epsilon/delta; Human CD3ε/CD3δ
Description: (§1) The samples to be tested were centrifuged at 4° C. at 12000 rpm for 30 minutes to remove the precipitate. 200 μl of each sample to be tested (0.5 mg/ml) was collected in a 1.5 ml Eppendorf tube. An equal volume of human serum (GEMINI, H2OYOOK) was added, mixed thoroughly, and the mixture was incubated in a 37° C. constant temperature CO₂ incubator. For a total of 10 days, 40 μl samples was aspirated every day and stored at −20° C.
(§2) Enzyme-linked immunosorbent assay (ELISA) was used to test the bispecific antibodies' binding to human CEA and human CD3 epsilon/delta antigen. The steps are as follows: the antigen human CD3ε/δ (ACRO systems, CDD-H52W1) and the recombinant tumor antigen human CEA (CEACAM-5/CD66e, ACRO systems, CE5-H5226) were diluted to 1 μg/ml with PBS, and then added to the 96-well plate at 100 μl per well. The wells were coated overnight at 4° C. After washing 3 times with 0.05% PBST, 200 μl 5% skimmed milk powder was added to each well and incubated at 37° C. for 2 h. After washing 3 times with 0.05% PBST, 100 μl primary antibody sample (10 μg/ml) was added to each well, and incubated at 37° C. for 2 h. After washing 3 times with 0.05% PBST, 100 μl (1:6000) diluted secondary antibody goat anti-human Fc-HRP (sigma, A2170) was added to each well, incubated at room temperature for 1 h. After washing 8 times with 0.05% PBST, 50 μl TMB color developing solution was added to each well, and incubated at room temperature for 10-15 min. 50 μl 1 mM HCl was added to each well to stop the color development. 450 nm Absorbance (OD) was read.
(§3) The binding of antibodies to antigen was calculated according to the following formula: Binding (%)=[(ODdayn−ODb)/(ODday0−ODb)]×100%. ODdayn: experimental well (the protein was stored in the serum for n days); ODday0: control well (the protein was not stored in the serum); ODb: blank well (no primary antibody added).

Row | Binder | Binding %
1 | B1 | 88%
2 | B2 | 78.1%
3 | B3 | 104%
4 | B4 | 103%

What follows are binders tested against T1, human CD3ε/δ (ACRO systems, CDD-H52W1) (assay: serum-stability ELISA, Day 6 vs Day 0).
Description: as §1, §2, §3

Row | Binder | Binding %
5 | B1 | 85.7%
6 | B2 | 76.9%
7 | B3 | 110%
8 | B4 | 99.2%

The binders below were run against T1, human CD3ε/δ (ACRO systems, CDD-H52W1) (assay: serum-stability ELISA, Day 0 (reference)).
Description: as §1, §2, §3

Row | Binder | Binding %
9 | B1 | 100%
10 | B2 | 100%
11 | B3 | 100%
12 | B4 | 100%

The binders below were run against T1, human CD3ε/δ (ACRO systems, CDD-H52W1) (assay: serum-stability ELISA, Day 10 vs Day 0).
Description: as §1, §2, §3

Row | Binder | Binding %
13 | B1 | 62.1%
14 | B2 | 56.1%
15 | B3 | 98.4%
16 | B4 | 78.2%

The binders below were run against T1, human CD3ε/δ (ACRO systems, CDD-H52W1) (assay: serum-stability ELISA, Day 1 vs Day 0).
Description: as §1, §2, §3

Row | Binder | Binding %
17 | B1 | 97.5%
18 | B2 | 68.5%
19 | B3 | 99%
20 | B4 | 93.2%

What follows are binders tested against T1, human CD3ε/δ (ACRO systems, CDD-H52W1) (assay: serum-stability ELISA, Day 2 vs Day 0).
Description: as §1, §2, §3

Row | Binder | Binding %
21 | B1 | 88.5%
22 | B2 | 74.3%
23 | B3 | 102%
24 | B4 | 99.3%

What follows are binders tested against T1, human CD3ε/δ (ACRO systems, CDD-H52W1) (assay: serum-stability ELISA, Day 7 vs Day 0).
Description: as §1, §2, §3

Row | Binder | Binding %
25 | B1 | 87.6%
26 | B2 | 77.5%
27 | B3 | 104%
28 | B4 | 106%

These binders were tested against T1, human CD3ε/δ (ACRO systems, CDD-H52W1) (assay: serum-stability ELISA, Day 9 vs Day 0).
Description: as §1, §2, §3

Row | Binder | Binding %
29 | B1 | 83.3%
30 | B2 | 77%
31 | B3 | 102%
32 | B4 | 96.5%
